Measurements taken from paper PMC7096399, “The Na,K-ATPase acts upstream of phosphoinositide PI(4,5)P2 facilitating unconventional secretion of Fibroblast Growth Factor 2” (Communications Biology, 2020).

Molecular target: T1, ∆N25-FGF2, non-tagged form of FGF2 lacking 25 residues at the N-terminus (UniProt P09038-2 26-155)
T1 construct: FGF2, 18 kDa isoform (UniProtKB P09038-2), lacking 25 residues at the N-terminus; Untagged; also called untagged version of FGF2; source: E. coli, purified according to standard procedures
T1 sequence (P09038 159-288): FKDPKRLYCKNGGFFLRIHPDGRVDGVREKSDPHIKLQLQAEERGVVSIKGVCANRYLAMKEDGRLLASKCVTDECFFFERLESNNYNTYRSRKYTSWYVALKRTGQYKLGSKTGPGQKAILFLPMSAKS
Experiment: AlphaScreen or HTRF; competition: His-FGF2-wt (62 nM) and GST-α1 variant (15 nM) with ∆N25-FGF2 competitor from 22.5 µM to 1.4 nM; apparent IC50 taken as the apparent KD
Conditions: both partners purified

Kd: 1100 nM
B1: GST-α1-CD1-3, fusion of the three main loops of the cytoplasmic domain of the α1 subunit of the Na,K-ATPase (domain or fragment)
chain: not shown
